From patent US8716246B2, “Azuvirin peptides” (The Regents of the University of California, priority 2011, dated 2014)
Square brackets hold non-standard residues; d marks the D form. Peptide text beside a SMILES is read from it. * marks the point of attachment. Oic = O=C(O)[C@@H]1C[C@@H]2CCCC[C@@H]2N1; Cha = N[C@@H](CC1CCCCC1)C(=O)O; Tle = CC(C)(C)[C@H](N)C(=O)O; Nicotinoyl = O=C(c1cccnc1)*; Acm = CC(=O)NC*

Columns and labels:
[1] = Observation of toxicity during the in vivo mouse studies; set-up: species or system C57BL/6 mice; details: 25 mg/kg IP
Description: Animal experiments. C57BL/6 gnotobiotic mice (8 weeks old) were obtained from the UCLA AALAC accredited Department of Radiation Oncology Facility and intravenously injected with 5×10^5 cells of syngeneic LLC. Various treatments were initiated 4 days later, after cancer engraftment. In general, each animal received intraperitoneally a total of 500 μg (˜25 mg/kg) of peptide (or equimolar amount of nicotinamide) in 4 daily doses 60 min before local thoracic irradiation (0 or 4 Gy, total dose: 4.4=16 Gy) that was delivered using an Atomic Energy of Canada cesium gamma irradiator with a dose rate of approximately 0.6 Gy/min with the rest of the body shielded. Prior to irradiation animals were anesthetized by intraperitoneal injection of ketamine/xylazine mixture. Animals were sacrificed on the 14th day of the experiment and lung tumor nodules were counted. All experiments were approved by the UCLA Animal Care and Use Committee and conformed to local and national guidelines.
C57BL/6 mice (8 weeks old) were injected subcutaneously with 1.0×10^6 cells of syngeneic LLC (leg). After 10 days, palpable tumors of approximately 5 mm diameter appeared and treatment was initiated. […] Tumor size was assessed every two days and animals sacrificed as necessary according to the UCLA Animal Care guidelines.

[2] = test system: human red blood cells (hRBCs)
Description: Human red blood cells (hRBCs). Fresh blood (˜3 ml) was collected from an anonymous donor into a tube that contained heparin as an anticoagulant. An aliquot of blood (200 μl) was removed and washed 4 with 800 μl of cold PBS at room temperature, each centrifugation was for 3 minutes at ˜500×g. A total of 780 μl of supernatant was removed each time. With four washes, this procedure should remove >99.8% of the total serum protein and any heparin anticoagulant. The supernatant was completely removed in the last wash, leaving only the packed red blood cells, which were subsequently diluted 1:20 in PBS to make 5% v/v stock of hRBCs.
Hemolysis assay. The experiments were carried out as previously described. Briefly, 2.5% v/v normal human RBCs were exposed to various concentrations of AzV36-NicL at 37° C. for 30 min. All experiment were carried out in triplicate using 96-well microplate (Costar 3596) and OD at 700 nm was monitored every 30 s. employing the SpectraMAX 250 microplate reader (Molecular Devices, Sunnyvale, Calif.). Controls: PBS, human RBCs, human RBCs+2.5% Triton (100% lysis). The hemolytic effect was calculated as following: […]

Compound: CC(=O)NCSC[C@H](NC(=O)[C@H](CC1CCCCC1)NC(=O)[C@H](CC1CCCCC1)NC(=O)[C@@H](CCCCNC(=O)c1cccnc1)NC(=O)[C@@H](N)Cc1ccc(O)cc1)C(=O)N[C@H](C(=O)N[C@@H](CC1CCCCC1)C(=O)N1[C@H](C(=O)N[C@H](CCCNC(=N)N)C(=O)N[C@@H](Cc2c[nH]cn2)C(=O)N[C@@H](CCCNC(=N)N)C(=O)N[C@H](C(=O)N[C@@H](CC2CCCCC2)C(=O)N[C@@H](CSCNC(C)=O)C(=O)N[C@H](CCCCN)C(N)=O)[C@@H](C)O)C[C@@H]2CCCC[C@@H]21)C(C)(C)C [AzV36-NicL, YkNic-Cha-Cha-Cam-Tle-Cha-Oic-rHRT-Cha-Cam-k-CONH] (H-Y[dK](Nicotinoyl)[Cha][Cha]C(Acm)[Tle][Cha][Oic][dR]HRT[Cha]C(Acm)[dK]-NH2)
- toxic effect of the injections in vivo [1]: no obvious toxic effect
- Hemolysis ± SEM ([2]; 20 μM peptide (highest tested), 2.5% hRBCs, 37° C., 30 min): 9.3±3.0%
- hemolytic effect (in words) ([2]; ≦10 μM peptide): non-hemolytic
